Laboratory results taken from patent publication US20230303690A1 (published 2023).

T1: human LAG3 expressed on cells (human, UniProt P18627 23-525)
T1 sequence (looked up): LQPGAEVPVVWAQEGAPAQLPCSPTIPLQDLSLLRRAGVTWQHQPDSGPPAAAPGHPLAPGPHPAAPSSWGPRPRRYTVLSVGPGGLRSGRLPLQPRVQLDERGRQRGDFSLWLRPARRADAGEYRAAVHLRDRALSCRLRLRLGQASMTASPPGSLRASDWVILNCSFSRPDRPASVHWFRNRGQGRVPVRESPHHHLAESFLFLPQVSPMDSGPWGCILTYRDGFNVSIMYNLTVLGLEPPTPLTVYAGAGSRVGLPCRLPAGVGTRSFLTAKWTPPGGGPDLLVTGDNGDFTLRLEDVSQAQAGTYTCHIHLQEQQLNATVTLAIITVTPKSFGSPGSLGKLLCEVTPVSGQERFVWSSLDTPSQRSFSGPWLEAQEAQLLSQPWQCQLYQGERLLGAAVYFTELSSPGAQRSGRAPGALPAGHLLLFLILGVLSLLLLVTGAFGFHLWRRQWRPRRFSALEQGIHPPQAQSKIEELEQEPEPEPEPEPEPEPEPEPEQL

T2: LAG3 Protein, Human, Recombinant (His Tag) (Sino Biological Catalog No. 16498-H08H) (human, UniProt P18627 23-450)
T2 construct: Bought protein; also called hLAG3-His; LAG3-His; not shown: His tag
T2 sequence (looked up): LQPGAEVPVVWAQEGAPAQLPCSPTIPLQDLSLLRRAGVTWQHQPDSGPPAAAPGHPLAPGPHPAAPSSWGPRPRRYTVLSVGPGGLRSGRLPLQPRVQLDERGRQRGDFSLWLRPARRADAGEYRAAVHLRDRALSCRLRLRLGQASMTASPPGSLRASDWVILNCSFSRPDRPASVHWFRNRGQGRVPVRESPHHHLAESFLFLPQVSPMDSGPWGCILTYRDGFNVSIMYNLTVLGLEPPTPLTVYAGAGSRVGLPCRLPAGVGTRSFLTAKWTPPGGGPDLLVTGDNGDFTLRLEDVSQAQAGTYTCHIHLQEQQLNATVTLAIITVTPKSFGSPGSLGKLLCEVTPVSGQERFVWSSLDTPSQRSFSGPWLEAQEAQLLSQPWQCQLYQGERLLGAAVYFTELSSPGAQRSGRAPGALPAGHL


Tests used:
[1] = target: T1, human LAG3 expressed on cells; experiment: cell-based or functional assay
[2] = target: T2, LAG3 Protein, Human, Recombinant (His …); experiment: SPR binning on LAG3-His; competitor 1
Procedure: (§1) The chip surface was regenerated after each cycle with 25 mM NaOH followed by HBS-EP wash provided in the kit.

[3] = target: T2, LAG3 Protein, Human, Recombinant (His …); experiment: SPR binning on LAG3-His; competitor 27
Procedure: as §1

[4] = target: T2, LAG3 Protein, Human, Recombinant (His …); experiment: SPR binning on LAG3-His; competitor 73
Procedure: as §1

[5] = target: T2, LAG3 Protein, Human, Recombinant (His …); experiment: SPR binning on LAG3-His; competitor 24
Procedure: as §1

[6] = target: T2, LAG3 Protein, Human, Recombinant (His …); experiment: SPR binning on LAG3-His; competitor 21
Procedure: as §1

[7] = target: T2, LAG3 Protein, Human, Recombinant (His …); experiment: SPR binning on LAG3-His; competitor 37
Procedure: as §1

[8] = target: T2, LAG3 Protein, Human, Recombinant (His …); experiment: SPR binning on LAG3-His; competitor BMS
Procedure: as §1

[9] = target: T2, LAG3 Protein, Human, Recombinant (His …); experiment: SPR (Biacore), sdAb captured by anti-human Fc, LAG3-His analyte
Procedure: The binding of the single domain antibodies to recombinant human LAG3 protein (rhLAG3) was examined by Biacore™ assay. […] The coating was carried out according to the manufacturer’s instructions accompanying the kit (Catalog No. BR-1008-39, GE). […] The chip surface was regenerated after each cycle with 25 mM NaOH followed by HBS-EP wash provided in the kit.

[10] = target: T2, LAG3 Protein, Human, Recombinant (His …); experiment: SPR binning on LAG3-His; competitor 20
Procedure: as §1

[11] = target: T2, LAG3 Protein, Human, Recombinant (His …); experiment: SPR binning on LAG3-His; competitor 17
Procedure: as §1

[12] = target: T2, LAG3 Protein, Human, Recombinant (His …); experiment: SPR binning on LAG3-His; competitor 18
Procedure: as §1

[13] = target: T2, LAG3 Protein, Human, Recombinant (His …); experiment: SPR binning on LAG3-His; competitor 25
Procedure: as §1

[14] = target: T1, human LAG3 expressed on cells; experiment: cell-based or functional assay; remark: listed apart in the source

| Binder | IL-2, % of BMS, at 0.005080526 ug/mL [1] [%] | IL-2, % of BMS, at 0.015241579 ug/mL [1] [%] | IL-2, % of BMS, at 0.045724737 ug/mL [1] [%] | IL-2, % of BMS, at 0.137174211 ug/mL [1] [%] | IL-2, % of BMS, at 0.411522634 ug/mL [1] [%] | IL-2, % of BMS, at 1.234567901 ug/mL [1] [%] | IL-2, % of BMS, at 3.703703704 ug/mL [1] [%] | IL-2, % of BMS, at 11.11111111 ug/mL [1] [%] | IL-2, % of BMS, at 33.33333333 ug/mL [1] [%] | IL-2, % of BMS, at 100 ug/mL [1] [%] | RU [2] [RU] | RU [3] [RU] | RU [4] [RU] | RU [5] [RU] | RU [6] [RU] | RU [7] [RU] | RU [8] [RU] | koff [9] [s⁻¹] | kon [9] [M⁻¹ s⁻¹] | RU [10] [RU] | also measured |
| --- | --- | --- | --- | --- | --- | --- | --- | --- | --- | --- | --- | --- | --- | --- | --- | --- | --- | --- | --- | --- | --- |
| sdAb No. 73 (VHH, Fc not described; also called sdAb 73; not shown: Fc part implied by anti-human Fc capture) VHH: QVQLVESGGGLVQPGGSLKLSCTASGFTLDYYAIAWFRQAPGKEREAVSCISSSDGSTRYADSVKGRFTISRDNAKNTVYLQMNSLKPEDTAVYYCAADPYGDCRGPYDYWGQGTQVTVSS | 0.495 | 3.55 | 3.63 | 6.64 | 15.5 | 19.5 | 24.5 | 30.6 | 36.8 | 41 | -7.3 | -2.2 | -9.7 | -9.6 | -10.2 | -6.9 | 27 | 0.000975 | 5.35e+06 | -117 | Kd [9]: 0.182 nM; RU [11]: -12.5 RU; RU [12]: -10.6 RU; RU [13]: 9.8 RU; EC50 for IL-2 rescue, hLAG3 Jurkat T system [14]: 42.6 nM; Efficacy (IL-2 production, BMS = 100%) [14]: 56.4% |
| sdAb No. 1 (VHH, the tested form was captured by anti-human Fc, its Fc is not described; also called sdAb 1; not shown: Fc part implied by anti-human Fc capture) VHH: QLQLVESGGGLVQAGGSLRLSCAASGFTFDDYAIGWFRQAPGKEREGVSCIRSSDGSTYYADSVKGRFTISSDNAKNTVYLQMNSLKPEDTAVYYCAKDNYSDCRGPYHYWGQGTQVTVSS | 8.4 | 8.77 | 6.07 | 14.2 | 14.8 | 30.7 | 46.4 | 45.7 | 54.4 | 51.3 | 22 | 4.9 | -11.6 | -10.6 | -114 | -8.4 | 37.4 | 5.05e-08 | 4.77e+06 | -14.8 | RU [11]: -6.9 RU; RU [12]: -10.7 RU; RU [13]: 30 RU; EC50 for IL-2 rescue, hLAG3 Jurkat T system [14]: 15.7 nM; Efficacy (IL-2 production, BMS = 100%) [14]: 41.4% |
| sdAb No. 20 (VHH, Fc of the tested form not described; also called sdAb 20; not shown: Fc part implied by anti-human Fc capture) VHH: QVQLVESGGGLVQPGGSLRLSCAASGLTLDGYAVGWFRQAPGKDREGLSCISGSDGSTHYLDSVKGRFTISRDNAKSTMALQMNSLQFGDTAIYYCAARRGSCSGSWTYWGQGTQVTVSS | 8.49 | 9.36 | 3.55 | 6.06 | 14.7 | 20.3 | 38 | 33 | 34.5 | 35.1 | -9.9 | -16.6 | -21.8 | -209 | -20.1 | -19.3 | 23.3 | 0.000429 | 1.71e+06 | -24.2 | Kd [9]: 0.252 nM; RU [11]: -7.8 RU; RU [12]: -12 RU; RU [13]: 205 RU; EC50 for IL-2 rescue, hLAG3 Jurkat T system [14]: 14.2 nM; Efficacy (IL-2 production, BMS = 100%) [14]: 26.9% |
| sdAb No. 21 (VHH, Fc of the tested form not described; also called sdAb 21; not shown: Fc part implied by anti-human Fc capture) VHH: QLQLVESGGGLVQPGGSLRLSCAASGLTLDGYAIAWFRQAPGKEREGLSCISGTDGSTHYLDSVKGRFTISRDNGKNTMALQMNSLQFGDTAIYYCAARRGSCSGSWTYWGQGTQITVSS | 10.5 | 13.7 | 13.4 | 21.7 | 24.6 | 27.7 | 32.8 | 31.7 | 38.9 | 35 | -4.7 | -14.8 | -19.5 | -18.9 | -19.1 | -17.3 | 194 | 0.00178 | 6.41e+06 | -12.6 | Kd [9]: 0.278 nM; RU [11]: -12 RU; RU [12]: -10.3 RU; RU [13]: 179 RU; EC50 for IL-2 rescue, hLAG3 Jurkat T system [14]: 3.41 nM; Efficacy (IL-2 production, BMS = 100%) [14]: 31% |
| sdAb No. 24 (VHH, Fc of the tested form not described; also called sdAb 24; not shown: Fc part implied by anti-human Fc capture) VHH: QLQLVESGGGLVQPGGSLRLSCAASGFTLNEHAIGWFRQAPGKEREGVSCISSSDGSTYYHDSVKGRFTMSRDDAKNTVYLQMNSLKAEDTAIYYCAAALGRDCQGGQWKTSSWGQGTQVTVSS | 10.7 | 2.74 | 3.44 | 10.8 | 1.26 | 17.8 | 34.9 | 47.2 | 57.7 | 48.2 | -8.8 | -6.6 | -11.3 | -10.1 | -12 | -8.5 | 30.5 | 3.39e-05 | 894000 | -12.9 | Kd [9]: 0.038 nM; RU [11]: -13.6 RU; RU [12]: -11.2 RU; RU [13]: 33.2 RU; EC50 for IL-2 rescue, hLAG3 Jurkat T system [14]: 35.8 nM; Efficacy (IL-2 production, BMS = 100%) [14]: 44.7% |
